According to IntAct's records for PubMed 30126976:

B1: Disintegrin and metalloproteinase domain-containing protein 22 (Homo sapiens), Q9P0K1 (parent)
chain: MQAAVAVSVPFLLLCVLGTCPPARCGQAGDASLMELEKRKENRFVERQSIVPLRLIYRSGGEDESRHDALDTRVRGDLGGPQLTHVDQASFQVDAFGTSFILDVVLNHDLLSSEYIERHIEHGGKTVEVKGGEHCYYQGHIRGNPDSFVALSTCHGLHGMFYDGNHTYLIEPEENDTTQEDFHFHSVYKSRLFEFSLDDLPSEFQQVNITPSKFILKPRPKRSKRQLRRYPRNVEEETKYIELMIVNDHLMFKKHRLSVVHTNTYAKSVVNMADLIYKDQLKTRIVLVAMETWATDNKFAISENPLITLREFMKYRRDFIKEKSDAVHLFSGSQFESSRSGAAYIGGICSLLKGGGVNEFGKTDLMAVTLAQSLAHNIGIISDKRKLASGECKCEDTWSGCIMGDTGYYLPKKFTQCNIEEYHDFLNSGGGACLFNKPSKLLDPPECGNGFIETGEECDCGTPAECVLEGAECCKKCTLTQDSQCSDGLCCKKCKFQPMGTVCREAVNDCDIRETCSGNSSQCAPNIHKMDGYSCDGVQGICFGGRCKTRDRQCKYIWGQKVTASDKYCYEKLNIEGTEKGNCGKDKDTWIQCNKRDVLCGYLLCTNIGNIPRLGELDGEITSTLVVQQGRTLNCSGGHVKLEEDVDLGYVEDGTPCGPQMMCLEHRCLPVASFNFSTCLSSKEGTICSGNGVCSNELKCVCNRHWIGSDCNTYFPHNDDAKTGITLSGNGVAGTNIIIGIIAGTILVLALILGITAWGYKNYREQRQLPQGDYVKKPGDGDSFYSDIPPGVSTNSASSSKKRSNGLSHSWSERIPDTKHISDICENGRPRSNSWQGNLGGNKKKIRGKRFRPRSNSTETLSPAKSPSSSTGSIASSRKYPYPMPPLPDEDKKVNRQSARLWETSI
B2: Colorectal mutant cancer protein (Homo sapiens), P23508 (parent)
chain: MNSGVAMKYGNDSSAELSELHSAALASLKGDIVELNKRLQQTERERDLLEKKLAKAQCEQSHLMREHEDVQERTTLRYEERITELHSVIAELNKKIDRLQGTTIREEDEYSELRSELSQSQHEVNEDSRSMDQDQTSVSIPENQSTMVTADMDNCSDLNSELQRVLTGLENVVCGRKKSSCSLSVAEVDKHIEQLTTASEHCDLAIKTVEEIEGVLGRDLYPNLAEERSRWEKELAGLREENESLTAMLCSKEEELNRTKATMNAIREERDRLRRRVRELQTRLQSVQATGPSSPGRLTSTNRPINPSTGELSTSSSSNDIPIAKIAERVKLSKTRSESSSSDRPVLGSEISSIGVSSSVAEHLAHSLQDCSNIQEIFQTLYSHGSAISESKIREFEVETERLNSRIEHLKSQNDLLTITLEECKSNAERMSMLVGKYESNATALRLALQYSEQCIEAYELLLALAESEQSLILGQFRAAGVGSSPGDQSGDENITQMLKRAHDCRKTAENAAKALLMKLDGSCGGAFAVAGCSVQPWESLSSNSHTSTTSSTASSCDTEFTKEDEQRLKDYIQQLKNDRAAVKLTMLELESIHIDPLSYDVKPRGDSQRLDLENAVLMQELMAMKEEMAELKAQLYLLEKEKKALELKLSTREAQEQAYLVHIEHLKSEVEEQKEQRMRSLSSTSSGSKDKPGKECADAASPALSLAELRTTCSENELAAEFTNAIRREKKLKARVQELVSALERLTKSSEIRHQQSAEFVNDLKRANSNLVAAYEKAKKKHQNKLKKLESQMMAMVERHETQVRMLKQRIALLEEENSRPHTNETSL
B3: Peroxiredoxin-5, mitochondrial (Homo sapiens), P30044 (parent)
chain: MGLAGVCALRRSAGYILVGGAGGQSAAAAARRYSEGEWASGGVRSFSRAAAAMAPIKVGDAIPAVEVFEGEPGNKVNLAELFKGKKGVLFGVPGAFTPGCSKTHLPGFVEQAEALKAKGVQVVACLSVNDAFVTGEWGRAHKAEGKVRLLADPTGAFGKETDLLLDDSLVSIFGNRRLKRFSMVVQDGIVKALNVEPDGTGLTCSLAPNIISQL
B4: Mitogen-activated protein kinase 12 (Homo sapiens), P53778 (parent)
chain: MSSPPPARSGFYRQEVTKTAWEVRAVYRDLQPVGSGAYGAVCSAVDGRTGAKVAIKKLYRPFQSELFAKRAYRELRLLKHMRHENVIGLLDVFTPDETLDDFTDFYLVMPFMGTDLGKLMKHEKLGEDRIQFLVYQMLKGLRYIHAAGIIHRDLKPGNLAVNEDCELKILDFGLARQADSEMTGYVVTRWYRAPEVILNWMRYTQTVDIWSVGCIMAEMITGKTLFKGSDHLDQLKEIMKVTGTPPAEFVQRLQSDEAKNYMKGLPELEKKDFASILTNASPLAVNLLEKMLVLDAEQRVTAGEALAHPYFESLHDTEDEPQVQKYDDSFDDVDRTLDEWKRVTYKEVLSFKPPRQLGARVSKETPL
B5: Solute carrier family 15 member 5 (Homo sapiens), A6NIM6 (parent)
chain: MSVTGFTITDEKVHLYHSIEKEKTVRHIGDLCSSHSVKKIQVGICLLLVELCERFTFFEVVCNMIPFCTIKLGYHNCQAAILNLCFIGTSILTPVFVRWLTDVYLGRNKLVYICLFLHFLGTALLSVVAFPLEDFYLGTYHAVNNIPKTEQHRLFYVALLTICLGIGGVRAIVCPLGAFGLQEYGSQKTMSFFNWFYWLMNLNATIVFLGISYIQHSQAWALVLLIPFMSMLMAVITLHMIYYNLIYQSEKRCSLLTGVGVLVSALKTCHPQYCHLGRDVTSQLDHAKEKNGGCYSELHVEDTTFFLTLLPLFIFQLLYRMCIMQIPSGYYLQTMNSNLNLDGFLLPIAVMNAISSLPLLILAPFLEYFSTCLFPSKRVGSFLSTCIIAGNLFAALSVMIAGFFEIHRKHFPAVEQPLSGKVLTVSSMPCFYLILQYVLLGVAETLVNPALSVISYRFVPSNVRGTSMNFLTLFNGFGCFTGALLVKLVYLISDGNWFPNTLNKGNLESFFFFLASLTLLNVLGFCSVSQRYCNLNHFNAQNIRGSNLEETLLLHEKSLKFYGSIQEFSSSIDLWETAL
B6: FERM and PDZ domain-containing protein 1 (Homo sapiens), Q5SYB0 (parent)
chain: MEELETSLFQTRKAHRIEQMVARWLRRSRDSSARAKVAAADGPARNPTQTLIPVRHTVKIDKDTLLQDYGFHISESLPLTVVAVTAGGSAHGKLFPGDQILQMNNEPAEDLSWERAVDILREAEDSLSITVVRCTSGVPKSSFLTEEKRARLKTNPVKVHFAEEVLISGHSQGNSLLCMPNVLKLYLENGQTKAFKFEANTTVKDIILTVKEKLSIRSIEYFALALEEQYSISRLHLLHEEELIQQVVEREESHDYRCLFRVCFVPKDPLDLLKEDPVAFEYLYLQSCSDVLQERFAVEMKCSSALRLAALHIQERIYACAQPQKISLKYIEKDWGIENFISPTLLRNMKGKDIKKAISFHMKRNQNLLEPRQKQLISAAQLRLNYLQILGELKTYGGRIFNATLMLQDRESYIALLVGAKYGISQVINSKLNIMSTLAEFANISRVELTEESEKVSVVKVYLQDVKVLTLLLESNSAKDLACLIAGYYRLLVDPVTSIFLWPGNKQQAHRVSAEEGYESRACSDSEESSEVDCVLEPLSDRRLVKLAPCRSLIKEEQPPGNSPTPEVARRGPSTCGASSTTDSAESEASDSANTESRGYRTSGSSESMDALEEDDLDTCSSSRSTFFHFGSPGLAESIDSDSQEERSGIETSGFLCLLDLAQRANPQCQKTEFSESAALETFGWAPELSTVRLDPRLYEGSHADYYSLCSSVSPASYLSDSSESTASRQGGAPPAWGQQGWTEAQPSSMLEPLALHPPLAFEDGSSDEEYYDAADKLTPPGPPSGPRDVSTAEPSATSLQNKASTSSPENSLPCGPDGRQPSRRGGVKKYAKTLRKRRSFLQTDYTSQVSFPLVPSASLESVDDVCYYDREPYLALGAPSPTVSSLQDMQGEPGLLETKALGLLAPLRETKSTNPASRVMEMEPETMETKSVIDSRVSSISAIRFRIDPNNKENSGVVPAASSSASTPHCSNPGSSGPDTAQARPSQILPLSQDLDGIAPKEPTIEHGDSSFSLSSGDPNPDRACLASNPGLNNVSQGDTLELQLEPHVQLEMGLESFCTNHIQETAPKYTEPLLSPRDEPRSDECGINPGEKIASIPTKEEPQGQLSLERDREVTNKNGTNVFQEESRKDSGDSPGDVSNNVSQTLDISSPAGKIVTSLSLDAPVTGTEQIPPHPPRDPQGQSREPPGQGCQAQEQKLFVELDLDPDFFLGKQTVSPAVPPEGIKAEAPNHVTGQDIAPRDSPEWVCFNPEPSLPEPLPCPQEDPHLETSNHCLLSEGKSDSSSICLSAEKSFLCFAPESHPEVSASLRVATSLGFAGMNEMVAPRIGMDQCSCQFSYATCFRGPQPETEEEDRDLEAHPMAPLTSPPSAGSPVVLPWRPARAHSCTTAPLSRKSHIWPEYCSRALRQLKATPASTPEGFIQLMESLLELQDILETSWGVGNKHPPEKCTWHFTESRSRLCMGSQKLLSSCRHVIRMDQSPEEMQGAVRDTFQHLVQLAGLCFQFTDCSRCSARHREAAGNLRDVVYTYHQFIEAAKSTCERGYHDLSVKLLARQCTALTAAVFCLTQKFRASTAL

Variants of: B1
Details: with scrib_human SCRIB
Target sequence in this assay (Q14160 whole entry): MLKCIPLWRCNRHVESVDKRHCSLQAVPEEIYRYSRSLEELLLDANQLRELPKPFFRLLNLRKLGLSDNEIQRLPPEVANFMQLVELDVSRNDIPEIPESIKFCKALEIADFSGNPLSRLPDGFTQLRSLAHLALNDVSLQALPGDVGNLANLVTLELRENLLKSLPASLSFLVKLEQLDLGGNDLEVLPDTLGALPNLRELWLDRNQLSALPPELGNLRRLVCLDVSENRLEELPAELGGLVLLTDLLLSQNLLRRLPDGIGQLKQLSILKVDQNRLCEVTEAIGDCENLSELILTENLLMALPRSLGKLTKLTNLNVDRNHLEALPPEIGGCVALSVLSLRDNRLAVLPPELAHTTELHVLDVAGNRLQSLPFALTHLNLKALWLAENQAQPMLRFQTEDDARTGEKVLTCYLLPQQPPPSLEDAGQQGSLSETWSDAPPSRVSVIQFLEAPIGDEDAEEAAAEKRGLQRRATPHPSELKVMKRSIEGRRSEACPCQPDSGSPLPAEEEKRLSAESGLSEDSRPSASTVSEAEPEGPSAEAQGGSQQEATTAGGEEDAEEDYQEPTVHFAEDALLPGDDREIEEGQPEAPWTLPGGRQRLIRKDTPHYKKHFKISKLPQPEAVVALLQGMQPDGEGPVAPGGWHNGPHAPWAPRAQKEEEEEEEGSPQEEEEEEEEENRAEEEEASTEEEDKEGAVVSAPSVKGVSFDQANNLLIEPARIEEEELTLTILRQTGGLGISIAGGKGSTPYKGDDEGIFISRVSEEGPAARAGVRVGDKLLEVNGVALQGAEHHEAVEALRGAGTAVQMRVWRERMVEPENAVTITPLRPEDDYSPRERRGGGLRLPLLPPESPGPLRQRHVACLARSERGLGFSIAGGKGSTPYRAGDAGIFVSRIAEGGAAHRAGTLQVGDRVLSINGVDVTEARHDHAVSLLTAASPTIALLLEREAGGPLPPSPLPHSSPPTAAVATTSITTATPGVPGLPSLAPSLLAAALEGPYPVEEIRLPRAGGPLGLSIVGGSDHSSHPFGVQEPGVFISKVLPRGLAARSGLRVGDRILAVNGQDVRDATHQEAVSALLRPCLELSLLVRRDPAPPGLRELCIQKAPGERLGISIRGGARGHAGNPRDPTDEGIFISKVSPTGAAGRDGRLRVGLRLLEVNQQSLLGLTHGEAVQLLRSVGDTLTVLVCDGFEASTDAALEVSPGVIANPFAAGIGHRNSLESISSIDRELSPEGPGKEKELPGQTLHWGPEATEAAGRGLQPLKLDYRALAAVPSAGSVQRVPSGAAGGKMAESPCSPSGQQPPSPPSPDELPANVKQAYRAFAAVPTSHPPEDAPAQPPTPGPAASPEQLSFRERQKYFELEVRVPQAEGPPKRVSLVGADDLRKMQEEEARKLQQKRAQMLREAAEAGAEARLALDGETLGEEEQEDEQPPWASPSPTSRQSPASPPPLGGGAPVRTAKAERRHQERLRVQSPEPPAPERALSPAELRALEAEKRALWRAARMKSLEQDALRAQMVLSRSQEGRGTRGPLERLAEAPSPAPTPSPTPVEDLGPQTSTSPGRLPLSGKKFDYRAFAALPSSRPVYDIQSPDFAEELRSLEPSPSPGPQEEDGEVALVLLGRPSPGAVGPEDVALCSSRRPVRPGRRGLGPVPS

Row | effect of a mutation on the interaction | Variant
1 | decreasing interaction strength | S898E

Variants of: B2
Details: with scrib_human SCRIB
Target sequence in this assay (Q14160 whole entry): as above

Row | effect of a mutation on the interaction | Variant
2 | increasing interaction strength | S828E

Variants of: B2
Details: with shan1_human SHANK1, Q9Y566
Chain of shan1_human SHANK1, Q9Y566 (Q9Y566 whole entry): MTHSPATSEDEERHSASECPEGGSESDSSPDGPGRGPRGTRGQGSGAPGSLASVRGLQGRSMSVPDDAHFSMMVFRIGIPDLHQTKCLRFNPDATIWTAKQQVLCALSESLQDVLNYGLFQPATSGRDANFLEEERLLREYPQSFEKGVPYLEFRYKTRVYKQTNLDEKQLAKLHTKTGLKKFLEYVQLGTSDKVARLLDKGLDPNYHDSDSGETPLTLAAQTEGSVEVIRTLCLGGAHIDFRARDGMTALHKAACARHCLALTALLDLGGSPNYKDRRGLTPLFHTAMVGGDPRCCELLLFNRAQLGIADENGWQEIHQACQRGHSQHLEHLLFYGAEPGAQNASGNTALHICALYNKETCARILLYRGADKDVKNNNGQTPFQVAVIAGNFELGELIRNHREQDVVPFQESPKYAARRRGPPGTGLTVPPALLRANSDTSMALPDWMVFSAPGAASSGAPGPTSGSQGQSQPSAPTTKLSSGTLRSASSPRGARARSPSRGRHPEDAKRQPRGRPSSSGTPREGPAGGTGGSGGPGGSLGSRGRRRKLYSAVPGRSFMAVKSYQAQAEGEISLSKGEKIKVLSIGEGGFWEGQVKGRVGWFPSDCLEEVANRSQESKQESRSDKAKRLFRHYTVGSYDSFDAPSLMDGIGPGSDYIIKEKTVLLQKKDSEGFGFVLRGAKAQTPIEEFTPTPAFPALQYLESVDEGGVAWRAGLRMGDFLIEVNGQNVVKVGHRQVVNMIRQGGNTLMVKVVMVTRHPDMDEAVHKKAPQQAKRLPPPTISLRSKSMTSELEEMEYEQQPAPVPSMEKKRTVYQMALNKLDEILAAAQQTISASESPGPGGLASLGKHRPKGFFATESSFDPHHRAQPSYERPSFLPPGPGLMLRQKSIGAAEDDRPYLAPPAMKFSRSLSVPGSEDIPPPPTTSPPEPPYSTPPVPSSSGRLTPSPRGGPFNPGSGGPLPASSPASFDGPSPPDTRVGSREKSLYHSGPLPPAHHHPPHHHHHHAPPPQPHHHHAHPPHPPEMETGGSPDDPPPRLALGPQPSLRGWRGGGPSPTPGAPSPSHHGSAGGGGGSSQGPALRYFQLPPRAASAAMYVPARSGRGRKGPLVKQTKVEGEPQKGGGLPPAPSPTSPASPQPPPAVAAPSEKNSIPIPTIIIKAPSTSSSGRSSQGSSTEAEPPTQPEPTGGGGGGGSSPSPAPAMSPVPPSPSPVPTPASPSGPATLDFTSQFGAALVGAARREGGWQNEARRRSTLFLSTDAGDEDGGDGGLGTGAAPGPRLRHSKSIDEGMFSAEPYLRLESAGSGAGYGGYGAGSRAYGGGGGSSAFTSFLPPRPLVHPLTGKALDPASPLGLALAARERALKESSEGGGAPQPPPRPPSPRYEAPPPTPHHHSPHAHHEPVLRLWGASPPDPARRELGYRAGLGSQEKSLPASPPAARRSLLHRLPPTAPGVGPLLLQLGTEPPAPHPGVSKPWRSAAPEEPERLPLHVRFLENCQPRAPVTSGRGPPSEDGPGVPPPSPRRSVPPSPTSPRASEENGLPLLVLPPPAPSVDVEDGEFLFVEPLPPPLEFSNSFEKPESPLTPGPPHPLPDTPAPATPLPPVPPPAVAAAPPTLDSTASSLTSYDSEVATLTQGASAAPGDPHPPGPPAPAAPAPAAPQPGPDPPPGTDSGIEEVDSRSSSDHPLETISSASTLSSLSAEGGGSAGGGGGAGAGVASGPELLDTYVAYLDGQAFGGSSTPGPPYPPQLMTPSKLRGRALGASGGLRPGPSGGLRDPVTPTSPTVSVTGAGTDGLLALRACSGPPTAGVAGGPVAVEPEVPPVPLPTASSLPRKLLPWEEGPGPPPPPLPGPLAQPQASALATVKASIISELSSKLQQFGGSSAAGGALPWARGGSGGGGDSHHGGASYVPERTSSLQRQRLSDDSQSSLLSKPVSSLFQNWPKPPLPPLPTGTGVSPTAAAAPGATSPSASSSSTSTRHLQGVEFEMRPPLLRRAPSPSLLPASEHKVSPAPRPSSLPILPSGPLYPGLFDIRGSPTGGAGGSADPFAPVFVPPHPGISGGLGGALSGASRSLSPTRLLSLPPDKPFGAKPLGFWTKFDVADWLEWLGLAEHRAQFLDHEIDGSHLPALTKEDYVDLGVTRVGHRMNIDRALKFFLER

Row | effect of a mutation on the interaction | Variant
3 | decreasing interaction strength | S828E

Variants of: B2
Details: with dlg1_human DLG1, Q12959
Target sequence in this assay (Q12959 whole entry, looked up): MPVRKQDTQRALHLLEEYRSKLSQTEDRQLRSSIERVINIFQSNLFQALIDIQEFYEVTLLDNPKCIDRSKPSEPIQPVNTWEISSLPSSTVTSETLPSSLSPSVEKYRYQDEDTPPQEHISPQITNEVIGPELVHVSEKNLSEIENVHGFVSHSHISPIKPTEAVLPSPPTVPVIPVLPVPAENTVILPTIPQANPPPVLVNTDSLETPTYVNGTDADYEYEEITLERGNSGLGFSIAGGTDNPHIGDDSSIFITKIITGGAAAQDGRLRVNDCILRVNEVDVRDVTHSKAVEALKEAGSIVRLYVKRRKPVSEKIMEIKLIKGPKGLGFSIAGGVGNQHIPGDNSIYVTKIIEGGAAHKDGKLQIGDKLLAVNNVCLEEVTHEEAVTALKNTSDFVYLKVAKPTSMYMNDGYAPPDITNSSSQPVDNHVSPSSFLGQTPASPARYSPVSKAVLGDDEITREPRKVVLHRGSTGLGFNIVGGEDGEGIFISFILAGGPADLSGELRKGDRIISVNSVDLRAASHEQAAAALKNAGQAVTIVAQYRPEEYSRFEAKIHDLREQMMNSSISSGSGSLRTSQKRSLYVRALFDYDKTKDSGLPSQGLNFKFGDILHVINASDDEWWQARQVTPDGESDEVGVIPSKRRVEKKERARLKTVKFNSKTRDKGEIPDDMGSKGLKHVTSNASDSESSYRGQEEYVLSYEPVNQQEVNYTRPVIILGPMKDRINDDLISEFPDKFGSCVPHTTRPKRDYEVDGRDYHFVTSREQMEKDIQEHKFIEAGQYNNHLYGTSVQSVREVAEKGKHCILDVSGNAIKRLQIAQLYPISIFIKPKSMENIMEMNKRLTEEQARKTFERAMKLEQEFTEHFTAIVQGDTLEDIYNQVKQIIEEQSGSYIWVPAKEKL

Row | effect of a mutation on the interaction | Variant
4 | decreasing interaction strength | S828E

Variants of: B3
Details: with scrib_human SCRIB
Target sequence in this assay (Q14160 whole entry): as the sequence (Q14160 whole entry) above

Row | effect of a mutation on the interaction | Variant
5 | with no effect | MGLAGVCALRRSAGYILVGGAGGQSAAAAARRYSEGEWASGGVRSFSRAAAAMAPIKVGDAIPAVEVFEGEPGNKVNLAELFKGKKGVLFGVPGAFTPGCSKTHLPGFVEQAEALKAKGVQVVACLSVNDAFVTGEWGRAHKAEGKVRLLADPTGAFGKETDLLLDDSLVSIFGNRRLKRFSMVVQDGIVKALNVEPDGTGLTCSLAPNIIEQL [S212E]

Variants of: B4
Details: with scrib_human SCRIB
Target sequence in this assay (Q14160 whole entry): as the sequence (Q14160 whole entry) above

Row | effect of a mutation on the interaction | Variant
6 | disrupting interaction strength | MSSPPPARSGFYRQEVTKTAWEVRAVYRDLQPVGSGAYGAVCSAVDGRTGAKVAIKKLYRPFQSELFAKRAYRELRLLKHMRHENVIGLLDVFTPDETLDDFTDFYLVMPFMGTDLGKLMKHEKLGEDRIQFLVYQMLKGLRYIHAAGIIHRDLKPGNLAVNEDCELKILDFGLARQADSEMTGYVVTRWYRAPEVILNWMRYTQTVDIWSVGCIMAEMITGKTLFKGSDHLDQLKEIMKVTGTPPAEFVQRLQSDEAKNYMKGLPELEKKDFASILTNASPLAVNLLEKMLVLDAEQRVTAGEALAHPYFESLHDTEDEPQVQKYDDSFDDVDRTLDEWKRVTYKEVLSFKPPRQLGARVSKEEPL [T365E]

Variants of: B4
Details: with dlg1_human DLG1, Q12959
Target sequence in this assay (Q12959 whole entry, looked up): as the sequence (Q12959 whole entry, looked up) above

Row | effect of a mutation on the interaction | Variant
7 | disrupting interaction strength | MSSPPPARSGFYRQEVTKTAWEVRAVYRDLQPVGSGAYGAVCSAVDGRTGAKVAIKKLYRPFQSELFAKRAYRELRLLKHMRHENVIGLLDVFTPDETLDDFTDFYLVMPFMGTDLGKLMKHEKLGEDRIQFLVYQMLKGLRYIHAAGIIHRDLKPGNLAVNEDCELKILDFGLARQADSEMTGYVVTRWYRAPEVILNWMRYTQTVDIWSVGCIMAEMITGKTLFKGSDHLDQLKEIMKVTGTPPAEFVQRLQSDEAKNYMKGLPELEKKDFASILTNASPLAVNLLEKMLVLDAEQRVTAGEALAHPYFESLHDTEDEPQVQKYDDSFDDVDRTLDEWKRVTYKEVLSFKPPRQLGARVSKEEPL [T365E]

Variants of: B5
Details: with scrib_human SCRIB
Target sequence in this assay (Q14160 whole entry): as the sequence (Q14160 whole entry) above

Row | effect of a mutation on the interaction | Variant
8 | decreasing interaction strength | MSVTGFTITDEKVHLYHSIEKEKTVRHIGDLCSSHSVKKIQVGICLLLVELCERFTFFEVVCNMIPFCTIKLGYHNCQAAILNLCFIGTSILTPVFVRWLTDVYLGRNKLVYICLFLHFLGTALLSVVAFPLEDFYLGTYHAVNNIPKTEQHRLFYVALLTICLGIGGVRAIVCPLGAFGLQEYGSQKTMSFFNWFYWLMNLNATIVFLGISYIQHSQAWALVLLIPFMSMLMAVITLHMIYYNLIYQSEKRCSLLTGVGVLVSALKTCHPQYCHLGRDVTSQLDHAKEKNGGCYSELHVEDTTFFLTLLPLFIFQLLYRMCIMQIPSGYYLQTMNSNLNLDGFLLPIAVMNAISSLPLLILAPFLEYFSTCLFPSKRVGSFLSTCIIAGNLFAALSVMIAGFFEIHRKHFPAVEQPLSGKVLTVSSMPCFYLILQYVLLGVAETLVNPALSVISYRFVPSNVRGTSMNFLTLFNGFGCFTGALLVKLVYLISDGNWFPNTLNKGNLESFFFFLASLTLLNVLGFCSVSQRYCNLNHFNAQNIRGSNLEETLLLHEKSLKFYGSIQEFSSEIDLWETAL [S571E]

Variants of: B6
Details: with scrib_human SCRIB
Target sequence in this assay (Q14160 whole entry): as the sequence (Q14160 whole entry) above

Row | effect of a mutation on the interaction | Variant
9 | increasing interaction strength | S1575E
